From paper PMC6796855

Target: GST-ATG16L1N (human) (UniProt Q676U5)
Assay: pull-down; recombinant GST fusion (2–200 nM) on glutathione resin, incubated with 1.5 mg of a 1:3.5 mixture of wild-type and ATG7 KO PC-3 lysates; 20 mM Tris-HCl pH 8.0, 200 mM NaCl, 1 mM EDTA, 0.5% NP-40; immunoblot for GST and ATG5; fraction bound quantified

Sequence of native ATG12–ATG5 conjugate (Q9H1Y0 whole entry): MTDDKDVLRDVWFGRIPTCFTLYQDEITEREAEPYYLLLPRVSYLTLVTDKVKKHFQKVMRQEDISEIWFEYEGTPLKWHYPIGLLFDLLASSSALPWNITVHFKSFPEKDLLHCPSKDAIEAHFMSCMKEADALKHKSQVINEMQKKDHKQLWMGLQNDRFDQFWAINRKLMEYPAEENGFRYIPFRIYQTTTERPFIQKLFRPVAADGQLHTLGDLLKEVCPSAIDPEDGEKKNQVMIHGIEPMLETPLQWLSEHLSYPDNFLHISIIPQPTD
Sequence of native ATG12–ATG5 conjugate (O94817 whole entry): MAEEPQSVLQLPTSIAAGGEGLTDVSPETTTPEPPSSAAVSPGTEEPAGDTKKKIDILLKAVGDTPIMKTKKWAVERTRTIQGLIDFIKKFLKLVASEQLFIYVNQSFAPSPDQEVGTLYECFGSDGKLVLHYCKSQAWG
Sequence of GST-ATG16L1N (human) (Q676U5 1-69): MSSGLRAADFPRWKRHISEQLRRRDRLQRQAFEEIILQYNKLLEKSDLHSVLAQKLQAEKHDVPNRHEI

fold higher affinity than unconjugated ATG5: 10 fold
Substance: native ATG12–ATG5 conjugate (from UniProt Q9H1Y0 1-275; O94817 1-140) (complex)
